Data: patent publication US20090068102A1, “TREATING STROKE” (BIOGEN IDEC MA INC., priority 2005, published 2009)

B1: rhTWEAK: recombinant soluble human TWEAK containing amino-acid residues A106-H249 (protein, UniProt O43508 106-249, looked up, fragment)
chain: AIAAHYEVHPRPGQDGAQAGVDGTVSGWEEARINSSSPLRYNRQIGEFIVTRAGLYYLYCQVHFDEGKAVYLKLDLLVDGVLALRCLEEFSATAASSLGPQLRLCQVSGLLALRPGSSLRIRTLPWAHLKAAPFLTYFGLFQVH

Columns and labels:
NF-κB = NF-κB luciferase reporter (pNF-κB-Luc) in transfected cortical neurons; assay type: cell-based, mouse
Experimental: (§1) Cell culture and transient transfection. Cortical neurons were prepared from embryonic day 16 (E16) mice. For transfection, cells were plated on 24-well plates precoated with poly-D-lysine (50 ng/ml) at a density of 200,000 cells per well. For RNA preparation, 2 million cells per well were plated on six-well plates. Cells were incubated in NEUROBASAL™ medium (Invitrogen) supplemented with B27 (Invitrogen), L-glutamine (0.5 mM), penicillin (100 IU/ml), and streptomycin (100 μg/ml). In these cultures, >95% of cells were positive for the neuronal marker NeuN. After 10 days in vitro, cells were transfected using LIPOFECTAMINE™ 2000 (Invitrogen) and 1 ng per well of the NF-κB reporter plasmid pNF-κB-Luc, which has five tandem repeats of an NF-κB binding site (Stratagene, Amsterdam, The Netherlands), according to the manufacturer's protocol. After 24 hours, cells were stimulated as indicated and harvested. Luciferase activity was measured as described (Sallmann et al. (2000) J. Neurosci. 20:8637-8642).
(§2) As indicated, cortical neurons were prepared from a transgenic mouse line (NSE-IκBα-SR) that expressed the NF-κB super-repressor, a mutant of IκBα (IκBα-SR), selectively in neurons. In this transgene, two serine residues, which are phosphorylated by the IκB kinase (IKK), are exchanged to alanines. Neuronal expression is driven by a 1.8 KB fragment of the rat neuron-specific enolase (NSE) promoter. The cell dissociation was performed individually from the brain of each transgenic or wild-type embryo. To control for transfection efficiency, cortical neurons of NSE-IκBα-SR mice and wild-type littermates were cotransfected with 0.1 μg Per well of phRL-TK (Promega, Mannheim, Germany) in addition to pNF-κB-Luc.

cortical neurons [1] = assay: Cell Death Detection ELISA (histone-associated DNA fragments) in cortical neurons; assay type: cell-based, mouse; conditions: 100 ng/ml, 24 hr
Experimental: Cell death assays. For terminal deoxynucleotidyl transferase-mediated biotinylated UTP nick end labeling (TUNEL) staining, the cells were fixed in 4% paraformaldehyde at room temperature for 30 minutes. Then, cells were washed twice in PBS for 5 minutes and treated for 2 minutes with 200 μl of permeabilization solution (0.1% Triton X-100 and 0.1% sodium citrate in PBS) at 4° C. After washing, sections were incubated with 50 μl of TUNEL reaction mix (enzyme solution diluted 1:6 in labeling solution; In Situ Cell Detection Kit, Fluorescein; Roche, Mannheim, Germany) for 1 hour at 37° C. in the dark. Then, coverslips were mounted with medium containing 4′,6-diamidino-2-phenylindole dihydrochloride (DAPI; VECTASHIELD®; Vector Laboratories, Burlingame, Calif.). TUNEL and DAPI-positive cells were detected under a fluorescent microscope. On each coverslip, five randomly selected fields were counted with a 40× objective (corresponding to ˜800 cells per coverslip). Cell Death Detection ELISA^Plus (Roche) was performed according to the manufacturer's instructions. Lactate dehydrogenase (LDH) activity in medium was quantified with the Cytotoxicity Detection Kit (LDH; Roche). LDH activity in untreated sister cultures was subtracted, and the LDH activity was expressed as percentage of the maximally releasable LDH pool in the presence of 1 mM glutamate.

cortical neurons [2] = assay: TWEAK-induced cell death in cortical neurons (DAPI and TUNEL staining); assay type: cell-based
Experimental: as §1
as §2, with “To control for transfection efficiency, cortical neurons of NSE-IκBα-SR mice and wild-type littermates were cotransfected with 0.1 μg Per well of phRL-TK (Promega, Mannheim, Germany) in addition to pNF-κB-Luc.” left out
Cell death assays. […] TUNEL and DAPI-positive cells were detected under a fluorescent microscope. On each coverslip, five randomly selected fields were counted with a 40× objective (corresponding to ˜800 cells per coverslip). […] Lactate dehydrogenase (LDH) activity in medium was quantified with the Cytotoxicity Detection Kit (LDH; Roche). LDH activity in untreated sister cultures was subtracted, and the LDH activity was expressed as percentage of the maximally releasable LDH pool in the presence of 1 mM glutamate.

[3] = exposure for 24 hours, 100 ng/ml

Molecule	NF-κB activation by rhTWEAK and Fc-hTWEAK (NF-κB; BMS-345541 25 μM)	DNA-histone complexes specific to apoptotic DNA fragmentation (ELISA) (cortical neurons [1])	effect size in DNA-histone ELISA compared with camptothecin (cortical neurons [1]; vs 10 μM camptothecin)	nuclear condensation (DAPI stain) (cortical neurons [2]; [3])	number of cortical neurons that were TUNEL positive (cortical neurons [2]; [3])	cell death (TUNEL) in IκBα-SR-expressing neurons vs wild-type (cortical neurons [2]; rhTWEAK 100 ng/ml, 24 hours)	NF-κB stimulation in neurons of NSE-IκBα-SR mice vs wild-type littermates (NF-κB; rhTWEAK 100 ng/ml)	NF-κB activity (luciferase) (NF-κB; stimulation for 24 hours)
Cc1ccc2nc(NCCN)c3ncc(C)n3c2c1 [BMS-345541, reference compound]	blocked							
B1		programmed cell death being induced	comparable with the one with 10 μM camptothecin	induced nuclear condensation	increased significantly	protected from cell death	significantly less	stimulated NF-κB activity in a concentration-dependent manner
